# Results taken from patent publication US20090297524A1 (DOMANTIS, published 2009).
# T1: Recombinant human CD40L (human, UniProt P29965 108-261, limits assumed)
# T1 construct: also called CD40 ligand
# T1 sequence (looked up): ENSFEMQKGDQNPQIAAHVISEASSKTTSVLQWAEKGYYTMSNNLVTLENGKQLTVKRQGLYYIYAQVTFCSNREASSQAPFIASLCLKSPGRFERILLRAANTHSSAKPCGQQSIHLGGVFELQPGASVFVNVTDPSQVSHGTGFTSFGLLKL
# B1: DOM8-24cys (other)
# VH: ASTEVQLLESGGGLVQPGGSLRLSCAASGFTFSNYQMAWVRQAPGKGLEWVSSITSEGGSTYYADSVKGRFTISRDNSKNTLYLQMNSLRAEDTAVYYCAKPGKNFDYWGQGTLVTVSC
# notes: VH dAb DOM8-24 with an engineered C-terminal cysteine (last Ser replaced by Cys); also called unmodified protein
# B2: 30K PEG-MAL PEGylated DOM8-24cys (other)
# VH: B1 VH
# modifications: 30K PEG-MAL on the engineered C-terminal cysteine
# notes: PEGylated monomer; also called 30K PEG DOM8-24cys
# B3: 40K PEG2-MAL PEGylated DOM8-24cys (other)
# VH: B1 VH
# modifications: 40K PEG2-MAL on the engineered C-terminal cysteine
# notes: PEGylated monomer; also called 40K PEG DOM8-24cys
# B4: DOM-31 (other)
# VH: EVQLLESGGGLVQPGGSLRLSCAASGFTFEEYQMAWVRQAPGKGLEWVSTISDDGSSTYYADSVKGRFTISRDNSKNTLYLQMNSLRAEDTAVYYCAKPDLYFDYWGQGTLVTVSS
# notes: VH dAb
# B5: DOM-77 (other)
# VH: EVQLLESGGGLVQPGGSLRLSCAASGFTFEEYGMAWVRQAPGKGLEWVSTISPLGISTYYADSVKGRFTISRDNSKNTLYLQMNSLRAEDTAVYYCAKHATSQESLRSFDYWGQGTLVTVSS
# notes: VH dAb
# What was measured:
# [1] = target: T1, Recombinant human CD40L; assay: CD40L receptor binding assay (RBA, ELISA): dAb titrated against 3 ng/ml CD40L binding to plate-coated CD40/Fc
# Protocol: (§1) A 96 well Nunc Maxisorp assay plate was coated overnight at 4° C. with 100 μl per well of recombinant human CD40/Fc (R&D Systems) at 0.5 μg/ml in carbonate buffer. The plate was washed 3 times with 300 μl of 0.05% Tween/PBS and 3 times with 300 μl of PBS using a Tecan plate washer. The wells were blocked using 200 μl of PBS containing 2% (w/v) BSA and incubated for a minimum of 1 h at room temperature. The wells were washed as above, then 50 μl of purified dAb protein was added to each well. […] The plate was washed as described above, then 100 μl HRP conjugated anti-biotin antibody (1:5000 dilution in diluent) added to each well and the plate incubated for 1 hr at room temperature. The plate was washed again as described above using a Tecan plate washer and the assay developed using 100 μl of SureBlue 1-Component TMB MicroWell Peroxidase solution (the plate was left at room temperature for up to 20 min). The reaction was stopped by the addition of 100 μl M hydrochloric acid. The OD₄₅₀ₙₘ of the plate was assayed within 30 minutes of acid addition. The OD₄₅₀ₙₘ is proportional to the amount of bound streptavidin-HRP conjugate, therefore the greater the degree of dAb inhibition the lower the OD₄₅₀ₙₘ of the resulting signal.
# [2] = target: T1, Recombinant human CD40L; assay: CD40L receptor binding assay: inhibition of CD40L (3 ng/ml) binding to coated CD40/Fc; 30K PEG
# Protocol: as §1
# [3] = target: T1, Recombinant human CD40L; assay: CD40L receptor binding assay: inhibition of CD40L (3 ng/ml) binding to coated CD40/Fc; 40K PEG
# Protocol: as §1
# [4] = target: T1, Recombinant human CD40L; assay: CD40L receptor binding assay: dAb inhibits CD40L (3 ng/ml) binding to coated CD40/Fc
# Protocol: A 96 well Nunc Maxisorp assay plate was coated overnight at 4° C. with 100 μl per well of recombinant human CD40/Fc (R&D Systems) at 0.5 μg/ml in carbonate buffer. The plate was washed 3 times with 300 μl of 0.05% Tween/PBS and 3 times with 300 μl of PBS using a Tecan plate washer. The wells were blocked using 200 μl of PBS containing 2% (w/v) BSA and incubated for a minimum of 1 h at room temperature. The wells were washed as above, then 50 μl of purified dAb protein (or unpurified supernatant containing dAb from a micro-culture expression) was added to each well.
# The plate was washed as described above, then 100 μl HRP conjugated anti-biotin antibody (1:5000 dilution in diluent) added to each well and the plate incubated for 1 hr at room temperature. The plate was washed again as described above using a Tecan plate washer and the assay developed using 100 μl of SureBlue 1-Component TMB MicroWell Peroxidase solution (the plate was left at room temperature for up to 20 min). The reaction was stopped by the addition of 100 μl M hydrochloric acid. The OD₄₅₀ₙₘ of the plate was assayed within 30 minutes of acid addition. The OD₄₅₀ₙₘ is proportional to the amount of bound streptavidin-HRP conjugate, therefore the greater the degree of dAb inhibition the lower the OD₄₅₀ₙₘ of the resulting signal.
Binder,IC50 (read off the curve) [1],IC50 [2],IC50 [3],IC50 [4]
B1,~0.6 nM,,,
B2,~0.5 nM,~1 nM,,
B3,~1 nM,,~1 nM,
B4,,,,8 nM
B5,,,,40 nM
